# B1: Activated CDC42 kinase 1 (Mus musculus), O54967 (parent)
# chain: MQPEEGTGWLLELLSEVQLQQYFLRLRDDLNITRLSHFEYVKNEDLEKIGMGRPGQRRLWEAVKRRKAMCKRKSWMSKVFSGKRLEAEFPSQHSQSTFRKPSPTPGSLPGEGTLQSLTCLIGEKDLRLLEKLGDGSFGVVRRGEWDAPAGKTVSVAVKCLKPDVLSQPEAMDDFIREVNAMHSLDHRNLIRLYGVVLTLPMKMVTELAPLGSLLDRLRKHQGHFLLGTLSRYAVQVAEGMAYLESKRFIHRDLAARNLLLATRDLVKIGDFGLMRALPQNDDHYVMQEHRKVPFAWCAPESLKTRTFSHASDTWMFGVTLWEMFTYGQEPWIGLNGSQILHKIDKEGERLPRPEDCPQDIYNVMVQCWAHKPEDRPTFVALRDFLLEAQPTDMRALQDFEEPDKLHIQMNDVITVIEGRAENYWWRGQNTRTLCVGPFPRNVVTSVAGLSAQDISQPLQNSFIHTGHGDSDPRHCWGFPDRIDELYLGNPMDPPDLLSVELSTSRPTQHLGRVKREPPPRPPQPAIFTQKTTYDPVSEDPDPLSSDFKRLGLRKPALPRGLWLAKPSARVPGTKADRSSGGEVTLIDFGEEPVVPTPRPCAPSLAQLAMDACSLLDKTPPQSPTRALPRPLHPTPVVDWDARPLPPPPAYDDVAQDEDDFEVCSINSTLVGAGLPAGPSQGETNYAFVPEQAQMPPALEDNLFLPPQGGGKPPSSVQTAEIFQALQQECMRQLQVPTGQLTPSPTPGGDDKPQVPPRVPIPPRPTRPRVELSPAPSGEEETSRWPGPASPPRVPPREPLSPQGSRTPSPLVPPGSSPLPHRLSSSPGKTMPTTQSFASDPKYATPQVIQAPGPRAGPCILPIVRDGRKVSSTHYYLLPERPPYLERYQRFLREAQSPEEPAALPVPPLLPPPSTPAPAAPTATVRPMPQAAPDPKANFSTNNSNPGARPPSLRAAARLPQRGCPGDGQEAARPADKVQMLQAMVHGVTTEECQAALQSHSWSVQRAAQYLKVEQLFGLGLRPRVECHKVLEMFDWNLEQAGCHLLGSCGPAHHKR
# Variants of: B1
# Settings: with NCK1, P16333-1
row,effect of a mutation on the interaction,Variant
1,disrupting interaction strength,K158A
